Here are results for nine substances from the supplement of paper PMC5998384.

Series [1] deals with HeLa Kyoto. In words: melting temperature (median over replicates), in situ; higher = more thermally stable.
Series [2] relates to HeLa Kyoto. Briefly: thermal stability score vs G1/S (z-score of summed log2 fold changes over temperatures); higher = more thermally stable than in G1/S.
Where [3] appears, read: cell cycle stage: early G1 (4.5 h after nocodazole release).
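Throughout, for melting temperature (median over replicates), in situ: HeLa Kyoto cells synchronized by double thymidine or nocodazole block, proteins quantified by TMT10plex mass spectrometry, three independent biological replicates.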
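Throughout, for thermal stability score vs G1/S (z-score of summed log2 fold changes over temperatures): synchronized HeLa Kyoto cells, proteins quantified by TMT10plex mass spectrometry, three biological replicates, mitosis taken 0.5 h after nocodazole release, G1/S directly after double thymidine block.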

As to “MDSFNYTTPDYGHYDDKDTLDLNTPVDKTSNTLRVPDILALVIFAVVFLVGVLGNALVVWVTAFEAKRTINAIWFLNLAVADFLSCLALPILFTSIVQHHHWPFGGAACSILPSLILLNMYASILLLATISADRFLLVFKPIWCQNFRGAGLAWIACAVAWGLALLLTIPSFLYRVVREEYFPPKVLCGVDYSHDKRRERAVAIVRLVLGFLWPLLTLTICYTFILLRTWSRRATRSTKTLKVVVAVVASFFIFWLPYQVTGIMMSFLEPSSPTFLLLKKLDSLCVSFAYINCCINPIIYVVAGQGFQGRLRKSLPSLLRNVLTEESVVRESKSFTRSTVDTMAQKTQAV [C5AR1]”, the melting temperature in the series with HeLa Kyoto [1] (cell cycle stage: G1/S) was found to be 57.8 °C; with HeLa Kyoto [1] (cell cycle stage: mitosis), 57.4 °C. For the same substance, the thermal stability score in the series with HeLa Kyoto [2] (setting [3]) was -2.16; in the series on HeLa Kyoto [2] (cell cycle stage: mitosis), -2.08.
The substance “MEEHGVTQTEHMATIEAHAVAQQVQQVHVATYTEHSMLSADEDSPSSPEDTSYDDSDILNSTAADEVTAHLAAAGPVGMAAAAAVATGKKRKRPHVFESNPSIRKRQQTRLLRKLRATLDEYTTRVGQQAIVLCISPSKPNPVFKVFGAAPLENVVRKYKSMILEDLESALAEHAPAPQEVNSELPPLTIDGIPVSVDKMTQAQLRAFIPEMLKYSTGRGKPGWGKESCKPIWWPEDIPWANVRSDVRTEEQKQRVSWTQALRTIVKNCYKQHGREDLLYAFEDQQTQTQATATHSIAHLVPSQTVVQTFSNPDGTVSLIQVGTGATVATLADASELPTTVTVAQVNYSAVADGEVEQNWATLQGGEMTIQTTQASEATQAVASLAEAAVAASQEMQQGATVTMALNSEAAAHAVATLAEATLQGGGQIVLSGETAAAVGALTGVQDANGLVQIPVSMYQTVVTSLAQGNGPVQVAMAPVTTRISDSAVTMDGQAVEVVTLEQ [NRF1]” gave a melting temperature with HeLa Kyoto [1] (cell cycle stage: mitosis) of 51.4 °C. Besides, the thermal stability score with HeLa Kyoto [2] (setting [3]) is -0.324; in the series on HeLa Kyoto [2] (cell cycle stage: mitosis) it was 0.518.
Regarding “MEKWYLMTVVVLIGLTVRWTVSLNSYSGAGKPPMFGDYEAQRHWQEITFNLPVKQWYFNSSDNNLQYWGLDYPPLTAYHSLLCAYVAKFINPDWIALHTSRGYESQAHKLFMRTTVLIADLLIYIPAVVLYCCCLKEISTKKKIANALCILLYPGLILIDYGHFQYNSVSLGFALWGVLGISCDCDLLGSLAFCLAINYKQMELYHALPFFCFLLGKCFKKGLKGKGFVLLVKLACIVVASFVLCWLPFFTEREQTLQVLRRLFPVDRGLFEDKVANIWCSFNVFLKIKDILPRHIQLIMSFCSTFLSLLPACIKLILQPSSKGFKFTLVSCALSFFLFSFQVHEKSILLVSLPVCLVLSEIPFMSTWFLLVSTFSMLPLLLKDELLMPSVVTTMAFFIACVTSFSIFEKTSEEELQLKSFSISVRKYLPCFTFLSRIIQYLFLISVITMVLLTLMTVTLDPPQKLPDLFSVLVCFVSCLNFLFFLVYFNIIIMWDSKSGRNQKKIS [ALG6]”, the melting temperature in the series with HeLa Kyoto [1] (cell cycle stage: G1/S) came out at 54.2 °C; in the series with HeLa Kyoto [1] (cell cycle stage: mitosis) it was 54.3 °C. Besides, the thermal stability score in the series with HeLa Kyoto [2] (setting [3]) is 0.428; in the series on HeLa Kyoto [2] (cell cycle stage: mitosis), -1.17.
As to “METLYRVPFLVLECPNLKLKKPPWLHMPSAMTVYALVVVSYFLITGGIIYDVIVEPPSVGSMTDEHGHQRPVAFLAYRVNGQYIMEGLASSFLFTMGGLGFIILDRSNAPNIPKLNRFLLLFIGFVCVLLSFFMARVFMRMKLPGYLMG [OSTC]”, in the series with HeLa Kyoto [1] (cell cycle stage: mitosis), the melting temperature was determined as 54.8 °C. Moreover, the thermal stability score in the series on HeLa Kyoto [2] (setting [3]) was 0.174; in the series on HeLa Kyoto [2] (cell cycle stage: mitosis), 0.407.
For “MEVGGDTAAPAPGGAEDLEDTQFPSEEAREGGGVHAVPPDPEDEGLEETGSKDKDQPPSPSPPPQSEALSSTSRLWSPAAPENSPTCSPESSSGGQGGDPSDEEWRSQRKHVFVLSEAGKPIYSRYGSVEALSATMGVMTALVSFVQSAGDAIRAIYAEDHKLVFLQQGPLLLVAMSRTSQSAAQLRGELLAVHAQIVSTLTRASVARIFAHKQNYDLRRLLAGSERTLDRLLDSMEQDPGALLLGAVRCVPLARPLRDALGALLRRCTAPGLALSVLAVGGRLITAAQERNVLAECRLDPADLQLLLDWVGAPAFAAGEAWAPVCLPRFNPDGFFYAYVARLDAMPVCLLLLGTQREAFHAMAACRRLVEDGMHALGAMRALGEAASFSNASSASAPAYSVQAVGAPGLRHFLYKPLDIPDHHRQLPQFTSPELEAPYSREEERQRLSDLYHRLHARLHSTSRPLRLIYHVAEKETLLAWVTSKFELYTCLSPLVTKAGAILVVTKLLRWVKKEEDRLFIRYPPKYSTPPATSTDQAAHNGLFTGL [MON1B]”, the melting temperature was found to be 52.9 °C in the series with HeLa Kyoto [1] (cell cycle stage: G1/S) and 52.7 °C in the series with HeLa Kyoto [1] (cell cycle stage: mitosis). Moreover, the results for the thermal stability score with HeLa Kyoto [2] (setting [3]) and in the series with HeLa Kyoto [2] (cell cycle stage: mitosis) were -0.93 and -0.544, respectively.
With “MNSMNPMKPALPPAPHGDGSFAYESVPWQQSATQPAGSLSVVTTVWGVGNATQSQVLGNPMGPAGSPSGSSMMPGVAGGSSALTSPQCLGQQAFAEGGANKGYVQQGVYSRGGYPGAPGFTTGYAGGPGGLGLPSHAARPSTDFTQAAAAAAVAAAAATATATATATVAALQEKQSQELSQYGAMGAGQSFNSQFLQHGGPRGPSVPAGMNPTGIGGVMGPSGLSPLAMNPTRAAGMTPLYAGQRLPQHGYPGPPQAQPLPRQGVKRTYSEVYPGQQYLQGGQYAPSTAQFAPSPGQPPAPSPSYPGHRLPLQQGMTQSLSVPGPTGLHYKPTEQFNGQGASFNGGSVSYSQPGLSGPTRSIPGYPSSPLPGNPTPPMTPSSSVPYMSPNQEVKSPFLPDLKPNLNSLHSSPSGSGPCDELRLTFPVRDGVVLEPFRLQHNLAVSNHVFQLRDSVYKTLIMRPDLELQFKCYHHEDRQMNTNWPASVQVSVNATPLTIERGDNKTSHKPLYLKHVCQPGRNTIQITVTACCCSHLFVLQLVHRPSVRSVLQGLLKKRLLPAEHCITKIKRNFSSGTIPGTPGPNGEDGVEQTAIKVSLKCPITFRRIQLPARGHDCRHIQCFDLESYLQLNCERGTWRCPVCNKTALLEGLEVDQYMLGILIYIQNSDYEEITIDPTCSWKPVPVKPDMHIKEEPDGPALKRCRTVSPAHVLMPSVMEMIAALGPGAAPFAPLQPPSVPAPSDYPGQGSSFLGPGTFPESFPPTTPSTPTLAEFTPGPPPISYQSDIPSSLLTSEKSTACLPSQMAPAGHLDPTHNPGTPGLHTSNLGAPPGPQLHHSNPPPASRQSLGQASLGPTGELAFSPATGVMGPPSMSGAGEAPEPALDLLPELTNPDELLSYLGPPDLPTNNNDDLLSLFENN [ZMIZ2]”, the thermal stability score was found to be 0.174 in the series with HeLa Kyoto [2] (setting [3]) and 0.237 in the series on HeLa Kyoto [2] (cell cycle stage: mitosis).
The like results for “MSVPGPYQAATGPSSAPSAPPSYEETVAVNSYYPTPPAPMPGPTTGLVTGPDGKGMNPPSYYTQPAPIPNNNPITVQTVYVQHPITFLDRPIQMCCPSCNKMIVSQLSYNAGALTWLSCGSLCLLGCIAGCCFIPFCVDALQDVDHYCPNCRALLGTYKRL [LITAF]” were, in that order, -0.592 and -0.943.
On to “MVRFKHRYLLCELVSDDPRCRLSLDDRVLSSLVRDTIARVHGTFGAAACSIGFAVRYLNAYTGIVLLRCRKEFYQLVWSALPFITYLENKGHRYPCFFNTLHVGGTIRTCQKFLIQYNRRQLLILLQNCTDEGEREAIQKSVTRSCLLEEEEESGEEAAEAME [POP5]”, for which the thermal stability score is -0.00794 in the series with HeLa Kyoto [2] (setting [3]) and -2.6 in the series with HeLa Kyoto [2] (cell cycle stage: mitosis).
The like results for TTC3 were, in that order, 0.321 and -0.39.
